Positions count from the first letter of the chain named. In names and notes the source's numbering stands.
B1: Alp8A-GFP fusion protein (Orf250 of Proteus vulgaris plasmid Rts1 fused to GFP) (other)
chain: MELLRKGRSFGGLFLIKGKVMNQSERFIVGLDIGYSNVKVACGGTQLLDPKVTIFPAYATPEPESDLALAKKSPDEVKVYPNGTEWRVFTNRVGHRELHESYHSTEMYKALFYGALIKATEGRSDVIDILVTGLPVRIANSEADRSQLCESFTGKHEVTPGRFILVKEVVVLSQGVGIMNDILNTEGLISDEDLEFSNILVIDPGYYSMDYVTFHRGDKKNEFSGSSLNATSVIIEEIVRVLERDYPKEGAQETERIETALRLGNKTFNNGFRSVEIEPLIEEVSHRIVSSVVAELLKRTRSIGPVHIIISAGGGARFYDHFIKEAFPQARILQSVNPVASNSIGYWHYGVNKLSSQSD
notes: Produced in E. coli TOP10 from pEB400; also called Rts1 orf250; pPtrcalp8A-gfp product; not shown: GFP from plasmid pDSW210
B2: Alp7A-GFP fusion protein (OrfB of Bacillus subtilis natto plasmid pLS20 with C-terminal GFP) (other)
chain: MNISRMNVDFGNSMYMNLIDGYFFELPTNVVEISKEAAEGKFTSIVEDPADLKDRLLVSTVIDETERYFLVGELAEPEVLGNQHIKKLHNKVESHIPYVTFLAATAYYQALKGKREDNEVTIEYFQTMLPIWLLKKLDKFSEMQKRMASKFLGTHQVKVLTLGLEKELTIKVEDAACRIESEVARWAIKKNFDLEDKDYAEQFKNYDVVFCDLGGGTDDLVLLPAGLKPPKSRDSFVSNTEAPFLAHLEKLRKEKLLEHFDSVRELEKFIYSNIGKTKMERRDGNTGQKFDLTDIIKKSLKEYTEIKIAQAENTFPAPKDKVYKYLYFGGVGEVLEESISVVTEERYGRDISESNHIVAEDARLLNLYGLEVLSRAEQVKKQANEKEAQSI
notes: Observed inside living or fixed E. coli and B. subtilis cells; Not a purified protein; also called pLS20 OrfB; not shown: C-terminal GFP from plasmid pMUTIN-GFP+
B3: Alp7A(E180A)-GFP (other)
chain: B2 chain with E180A
notes: Observed in B. subtilis PY79 cells; also called mini-pLS20alp7A(E180A)-gfp product; not shown: C-terminal GFP from plasmid pMUTIN-GFP+
B4: Alp7A(D212A)-GFP (other)
chain: B2 chain with D212A
notes: Observed in B. subtilis PY79 cells; also called mini-pLS20alp7A(D212A)-gfp product; not shown: C-terminal GFP from plasmid pMUTIN-GFP+

Columns and labels:
[1] = molecular target: the molecule itself; assay: self-assembly into filaments, GFP fluorescence microscopy in E. coli
[2] = molecular target: the molecule itself; assay: self-assembly into filaments, GFP fluorescence microscopy, time-lapse and FRAP in B. subtilis
[3] = molecular target: the molecule itself; assay: GFP fluorescence microscopy in B. subtilis (self-assembly into filaments)

| Protein | binding result [1] | further results |
| --- | --- | --- |
| B1 | binds | – |
| B2 | binds | – |
| B3 | – | binding result [2]: binds |
| B4 | – | binding result [3]: no binding |
